What was measured:
[1] = target: T1, human Mpl expressed on BaF3 cells (BaF3-human Mpl) (human, UniProt P40238 26-635); experiment: cell-based or functional assay
T1 sequence: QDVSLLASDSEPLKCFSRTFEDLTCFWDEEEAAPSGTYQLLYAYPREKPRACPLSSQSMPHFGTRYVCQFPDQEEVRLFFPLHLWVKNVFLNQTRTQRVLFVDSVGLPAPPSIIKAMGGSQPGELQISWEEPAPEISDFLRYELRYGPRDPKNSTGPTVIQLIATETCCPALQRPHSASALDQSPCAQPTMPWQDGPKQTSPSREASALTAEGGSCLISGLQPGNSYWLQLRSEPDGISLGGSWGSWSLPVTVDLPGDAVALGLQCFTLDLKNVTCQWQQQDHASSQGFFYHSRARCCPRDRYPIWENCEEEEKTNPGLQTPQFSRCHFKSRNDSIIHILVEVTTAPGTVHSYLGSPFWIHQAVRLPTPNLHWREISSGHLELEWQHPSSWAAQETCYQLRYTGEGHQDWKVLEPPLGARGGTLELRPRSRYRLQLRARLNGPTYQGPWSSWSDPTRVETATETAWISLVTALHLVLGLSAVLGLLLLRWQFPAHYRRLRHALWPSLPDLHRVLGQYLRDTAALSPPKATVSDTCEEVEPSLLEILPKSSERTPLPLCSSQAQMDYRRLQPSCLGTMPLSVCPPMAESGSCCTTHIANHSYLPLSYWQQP

[2] = target: T2, GST fusion protein containing human Mpl MG3 (Gln26 to Ala189) (human, UniProt P40238 26-189); experiment: Western blotting of GST fusion protein
T2 construct: As MG1; not shown: glutathione-S-transferase of vector pGEX-4T-3 (Amersham Biosciences)
T2 sequence: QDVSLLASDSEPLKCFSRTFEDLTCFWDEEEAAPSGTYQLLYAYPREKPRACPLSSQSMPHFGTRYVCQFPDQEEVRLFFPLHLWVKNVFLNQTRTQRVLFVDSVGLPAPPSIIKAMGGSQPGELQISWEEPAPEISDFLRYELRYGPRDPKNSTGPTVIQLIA
Protocol: (§1) Since the anti-human Mpl antibody VB22B can be used for Western blotting, a GST-fusion protein containing a partial sequence of human Mpl was constructed for VB22B epitope analysis. MG1 (Gln26 to Trp491) and MG2 (Gln26 to Leu274) regions were each amplified by PCR, and cloned into pGEX-4T-3 (Amersham Biosciences) to be expressed as GST fusion proteins. The resulting plasmid DNAs were transformed into DH5α to give transformants. A final concentration of 1 mM IPTG was added to the transformants in their logarithmic growth phase to induce the expression of GST fusion proteins. The bacterial cells were harvested after two hours of incubation. The cells were lysed by sonication. The lysates were centrifuged in XL-80 Ultracentrifuge (Beckman, Rotor 70.1Ti) at 35,000 rpm for 30 min. The culture supernatants were removed, and then the fusion proteins were purified using GST Purification Modules (Amersham Biosciences). The samples were separated by 10%-SDS-PAGE, and then transferred onto a PVDF membrane. The membrane was analyzed by the murine antibody VB22B in Western Btotting.
(§2) Then, GST fusion proteins containing the respective regions of human Mpl: MG3 (Gln26 to Ala189), MG4 (Gln26 to Pro106), MG5 (Gln26 to Glu259), and MG6 (Gln26 to Gly245) were prepared and analyzed by Western blotting using the same procedure described above. […] In addition, GST was fused with MG7 (Gln26 to Ala231) and MG8 (Gln26 to Pro217) to prepare GST fusion proteins.

[3] = target: T3, GST fusion protein containing human Mpl MG4 (Gln26 to Pro106) (human, UniProt P40238 26-106); experiment: Western blotting of GST fusion protein
T3 construct: As MG1; not shown: glutathione-S-transferase of vector pGEX-4T-3 (Amersham Biosciences)
T3 sequence: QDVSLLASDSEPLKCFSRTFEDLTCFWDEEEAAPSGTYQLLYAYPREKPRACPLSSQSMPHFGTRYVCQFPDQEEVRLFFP
Protocol: as §1, §2

[4] = target: T4, GST fusion protein containing human Mpl MG8 (Gln26 to Pro217) (human, UniProt P40238 26-217); experiment: Western blotting of GST fusion protein
T4 construct: As MG1; not shown: glutathione-S-transferase of vector pGEX-4T-3 (Amersham Biosciences)
T4 sequence: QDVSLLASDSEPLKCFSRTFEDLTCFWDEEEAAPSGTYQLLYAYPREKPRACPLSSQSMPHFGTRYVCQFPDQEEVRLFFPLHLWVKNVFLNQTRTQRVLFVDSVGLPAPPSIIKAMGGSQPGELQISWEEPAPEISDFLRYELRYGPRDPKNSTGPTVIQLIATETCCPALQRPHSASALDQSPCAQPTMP
Protocol: as §1, §2

B1: anti-human Mpl antibody VB22B IgG (antibody, V domains shown)
VH: QVQLQQSGPELVKPGASVKISCKASGYAFTNSWMNWVKQRPGKGLEWIGRIYPGDGETIYNGKFRVKATLTADKSSSTAYMDISSLTSEDSAVYFCARGYDDYSFAYWGQGTLVTVSA
VL: DIVMTQAAPSIPVTPGESVSISCRSSKSLLHSNGNTYLYWFLQRPGQSPQLLIYRMSNLASGVPDRFSGSGSGTAFTLRISRVEAEDVGVYYCMQHIEYPFTFGSGTKLEIK
notes: also called murine antibody VB22B
For B1, the “TPO-like agonistic activity, EC50 (growth of BaF3-human Mpl, WST-8)” value [1] was greater than 30 nM, the binding result [2] was “no binding” and the binding result [3] was “no binding”. B1: no binding [4].
